Experimental data: article PMC2917355, “Characterization of a Temperature-Sensitive Vertebrate Clathrin Heavy Chain Mutant as a Tool to Study Clathrin-Dependent Events In Vivo” (PLoS ONE, 2010)
Where a chain is given by its changes, count along the chain named. Numbers in names are those of the source.

B1: human clathrin heavy chain wild type hub fragment (domain or fragment, UniProt Q00610 1074-1675, looked up)
chain: KFDVNTSAVQVLIEHIGNLDRAYEFAERCNEPAVWSQLAKAQLQKGMVKEAIDSYIKADDPSSYMEVVQAANTSGNWEELVKYLQMARKKARESYVETELIFALAKTNRLAELEEFINGPNNAHIQQVGDRCYDEKMYDAAKLLYNNVSNFGRLASTLVHLGEYQAAVDGARKANSTRTWKEVCFACVDGKEFRLAQMCGLHIVVHADELEELINYYQDRGYFEELITMLEAALGLERAHMGMFTELAILYSKFKPQKMREHLELFWSRVNIPKVLRAAEQAHLWAELVFLYDKYEEYDNAIITMMNHPTDAWKEGQFKDIITKVANVELYYRAIQFYLEFKPLLLNDLLMVLSPRLDHTRAVNYFSKVKQLPLVKPYLRSVQNHNNKSVNESLNNLFITEEDYQALRTSIDAYDNFDNISLAQRLEKHELIEFRRIAAYLFKGNNRWKQSVELCKKDSLYKDAMQYASESKDTELAEELLQWFLQEEKRECFGACLFTCYDLLRPDVVLETAWRHNIMDFAMPYFIQVMKEYLTKVDKLDASESLRKEEEQATETQPIVYGQPQLMLTAGPSVAVPPQAPFGYGYTAPPYGQPQPGFGYSM
notes: Clathrin heavy chain, human, C-terminal 'hub' fragment involved in trimerization; The PCR primers encode KFDVNTS... at the start (after a BamHI site) and ...GFGYSM followed by the stop codon at the end (before a HindIII site); Cloned in pET28a between BamHI and HindIII with its own stop codon, so the His tag is probably N-terminal (surmised); also called clathrin-hub fragment; hub fragment (wild …)
B2: human clathrin heavy chain TS-hub fragment (E1584K) (domain or fragment, UniProt Q00610 1074-1675, looked up)
chain: B1 chain with E511K
notes: Clathrin heavy chain, human, C-terminal 'hub' fragment amplified from the TS-clathrin (E1584K) cDNA; The PCR primers encode KFDVNTS... at the start and ...GFGYSM followed by the stop codon at the end; Same construct as m1 but with the temperature-sensitive point mutation E1584K. pET28a, so the His tag is probably N-terminal (surmised); also called clathrin hub fragment TS-mutant; pET28a human …

Biological target: the molecule itself
Assay: cross-linking; 1 µM clathrin hub fragment (wild type or TS-mutant) in PBS with 10 mg/l BS3 for 5 min at temperatures from 26 to 47°C; SDS-PAGE with silver stain or anti-His-tag Western blot

| Protein | binding result |
| --- | --- |
| B1 | binds |
| B2 | binds |
